Reference: patent US20230257458A1 (SUNSHINE LAKE PHARMA, published 2023)

Legend:
[1] = target: recombinant IL-6 (Sinobiological-10395-HNAE) (UniProt P05231 30-212); assay: ELISA, cytokine coated
[2] = target: T1, recombinant IL-27 (R&D systems, 2526-IL-010) (UniProt Q8NEV9 29-243; Q14213 21-229); assay: ELISA, cytokine coated
T1 sequence (looked up) 1: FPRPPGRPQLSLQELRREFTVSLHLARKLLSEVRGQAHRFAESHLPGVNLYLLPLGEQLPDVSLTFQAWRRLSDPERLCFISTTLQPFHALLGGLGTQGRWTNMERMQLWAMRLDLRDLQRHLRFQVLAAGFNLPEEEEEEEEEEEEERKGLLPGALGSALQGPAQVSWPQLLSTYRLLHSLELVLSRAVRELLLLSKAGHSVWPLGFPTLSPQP
T1 sequence (looked up) 2: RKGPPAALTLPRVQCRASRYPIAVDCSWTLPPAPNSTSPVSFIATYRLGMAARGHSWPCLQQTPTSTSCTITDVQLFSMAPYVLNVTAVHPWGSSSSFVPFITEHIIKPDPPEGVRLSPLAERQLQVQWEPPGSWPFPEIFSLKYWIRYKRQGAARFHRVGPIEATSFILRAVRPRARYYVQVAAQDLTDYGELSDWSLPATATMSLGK

[3] = target: T2, recombinant OSM (Genscript-z03132) (UniProt P13725 26-234, limits assumed); assay: ELISA, cytokine coated
T2 sequence (looked up): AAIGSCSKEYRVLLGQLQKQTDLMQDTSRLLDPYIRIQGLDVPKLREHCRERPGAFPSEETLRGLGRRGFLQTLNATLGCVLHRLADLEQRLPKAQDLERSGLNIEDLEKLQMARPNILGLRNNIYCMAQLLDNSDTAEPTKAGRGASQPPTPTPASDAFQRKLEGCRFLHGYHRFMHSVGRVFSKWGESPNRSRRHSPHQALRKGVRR

[4] = target: T3, recombinant CLC (R&D systems, 962-CL-050) (UniProt Q9UBD9 28-225); assay: ELISA, cytokine coated
T3 sequence (looked up): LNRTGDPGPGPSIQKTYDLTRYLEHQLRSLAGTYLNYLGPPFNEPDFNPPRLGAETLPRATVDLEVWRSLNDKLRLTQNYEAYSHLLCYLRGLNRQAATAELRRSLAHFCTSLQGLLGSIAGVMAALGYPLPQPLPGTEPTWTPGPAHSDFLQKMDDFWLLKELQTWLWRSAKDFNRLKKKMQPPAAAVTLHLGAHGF

[5] = target: recombinant LIF (Peprotech, 300-05) (UniProt P15018 23-202); assay: ELISA, cytokine coated
recombinant LIF (Peprotech, 300-05), sequence (P15018 23-202 limits assumed): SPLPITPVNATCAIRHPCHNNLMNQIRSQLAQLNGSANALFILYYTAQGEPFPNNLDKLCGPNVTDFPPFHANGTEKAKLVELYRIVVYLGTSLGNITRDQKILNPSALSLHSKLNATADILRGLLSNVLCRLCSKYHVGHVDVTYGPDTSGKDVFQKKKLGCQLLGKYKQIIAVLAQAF

[6] = target: T4, recombinant IL-31 (Peprotech, 200-31) (UniProt Q6EBC2 24-164); assay: ELISA, cytokine coated
T4 sequence (looked up): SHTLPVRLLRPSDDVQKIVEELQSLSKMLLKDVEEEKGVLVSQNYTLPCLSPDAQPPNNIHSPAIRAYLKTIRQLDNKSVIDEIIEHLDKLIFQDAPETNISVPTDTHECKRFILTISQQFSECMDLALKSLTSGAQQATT

[7] = target: T5, recombinant CNTF (R&D systems, 257-NT-010) (UniProt P26441 2-200); assay: ELISA, cytokine coated
T5 sequence (looked up): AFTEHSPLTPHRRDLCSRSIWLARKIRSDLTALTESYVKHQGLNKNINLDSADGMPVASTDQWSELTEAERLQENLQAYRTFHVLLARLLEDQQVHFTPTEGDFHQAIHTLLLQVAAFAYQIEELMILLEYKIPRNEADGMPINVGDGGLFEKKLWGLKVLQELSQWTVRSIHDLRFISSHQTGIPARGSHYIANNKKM

[8] = target: T6, recombinant CT-1 (R&D systems, 612-CD-010) (UniProt Q16619 2-201, limits assumed); assay: ELISA, cytokine coated
T6 sequence (looked up): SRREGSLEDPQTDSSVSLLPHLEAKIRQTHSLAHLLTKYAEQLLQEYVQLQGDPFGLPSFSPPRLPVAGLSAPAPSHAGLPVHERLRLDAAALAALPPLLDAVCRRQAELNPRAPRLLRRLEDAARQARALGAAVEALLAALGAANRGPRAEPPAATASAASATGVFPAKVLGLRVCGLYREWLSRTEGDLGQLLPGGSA

[9] = target: T7, recombinant human protein antigen hu-IL-11-His tag (human, UniProt P20809 22-199); assay: BLI, IL-11 (His tag) on Ni-NTA sensor, antibody as analyte
T7 construct: Expressed in CHO, Ni column and Superdex75; not shown: His tag
T7 sequence (looked up): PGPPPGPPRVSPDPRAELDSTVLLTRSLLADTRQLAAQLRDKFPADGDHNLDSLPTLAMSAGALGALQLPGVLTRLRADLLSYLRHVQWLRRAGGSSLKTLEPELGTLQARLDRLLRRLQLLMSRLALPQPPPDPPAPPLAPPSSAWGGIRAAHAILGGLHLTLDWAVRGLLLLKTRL
Protocol: Bio-Layer Interferometry (BLI) was used for binding affinity determination. […] The analytes were diluted in 7 concentration gradients, the binding time was 60 s and the dissociation time was 1000 s. The buffer was 20 mM PBS, 0.15M NaCl, 0.1% BSA, 0.05% Tween 20, pH 7.

IL-11 protein = target: T8, IL-11 protein (UniProt P20809 22-199, limits assumed); assay: flow competition: IL-11 + antibody on IL-11R cells; lower = more blocking
T8 construct: also called IL-11 antigen
T8 sequence (looked up): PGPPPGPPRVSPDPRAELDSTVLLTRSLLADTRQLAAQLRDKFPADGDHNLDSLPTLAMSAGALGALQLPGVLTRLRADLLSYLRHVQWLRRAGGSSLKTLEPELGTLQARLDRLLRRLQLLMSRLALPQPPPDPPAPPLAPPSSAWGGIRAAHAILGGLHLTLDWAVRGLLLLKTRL
Source text: Cell lines with high secretion of specific antibody were selected for expanded culture and cryopreservation.

IL-11-Fc protein = target: T9, IL-11-Fc protein (UniProt P20809 22-199, limits assumed); assay: flow competition: IL-11-Fc + antibody gradient on membrane-IL-11R CHO cells; 5-20E11-5F2 antibody
T9 construct: also called IL-11 recombinant protein with Fc tag; not shown: Fc tag
T9 sequence (looked up): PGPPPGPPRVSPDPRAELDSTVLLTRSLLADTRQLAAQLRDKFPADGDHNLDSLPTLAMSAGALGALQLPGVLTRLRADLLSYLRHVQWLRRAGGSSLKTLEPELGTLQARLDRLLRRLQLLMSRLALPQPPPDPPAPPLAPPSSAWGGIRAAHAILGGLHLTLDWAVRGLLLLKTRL
Source text: The secondary antibody used in the detection was a secondary antibody conjugated with a FITC fluorophore (Goat-anti-Fc-FITC) (Abcam, ab98529).

B1: 5-20E11-5F2 (antibody, human IgG1, kappa, V domains shown)
VH: QVQLQQSGAELVRPGTSAKISCKASDYTFTNYWLGWLKQRPGHGLEWIGHIYPGGGYTNYNEKFKGKATLTADTSSSTAYMQLSSLTSEDSAVYFCARVRSGNDALDFWGQGTSVTVSS
VL: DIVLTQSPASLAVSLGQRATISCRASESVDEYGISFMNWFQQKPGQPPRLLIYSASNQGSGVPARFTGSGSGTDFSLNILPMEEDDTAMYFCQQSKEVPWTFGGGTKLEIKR
notes: also called 5-20E11-5F2 antibody; 5-20E11-5F2 mAb
B1: no binding [1]; no binding [2]; no binding [3]. B1: no binding [4]; no binding [5]; no binding [6]. The binding result [7] was “no binding”, the binding result [8] was “no binding” and the Kd [9] was 0.069 nM. For the same binder, the koff [9] was 1.21e-05 s⁻¹, the kon [9] was 175000 M⁻¹ s⁻¹ and the “FITC Mean” value (IL-11 protein) was 3110. The IC50 (IL-11-Fc protein) was ~21 µg/mL.
